Assay results published in patent US20210162028A1, “Methods for Inducing Intermittent Fasting and Modulating Autophagy” (The Hong Kong Polytechnic University, priority 2019, published 2021).
“Also recorded” adds a separate entry of the source.

Assays:
Type in all cases: in vivo, mouse
[1] = Survival of very old mice; conditions: 25-month old C57BL/6J male mice on chow diet; weekly for 30 weeks; vehicle 20%
Description: Specific autophagy upregulation in Caenorhabditis elegans and Drosophila extends lifespan, and drugs that induce autophagy, such as rapamycin, promote longevity in rodents (Hansen et al., Nature Reviews Molecular Cell Biology. 2018; 19:579-593). For C57BL/6J mice, over 24 months of age can be considered “very old” and survivorship drops off markedly (https://www.jax.org/news-and-insights/jax-blog/2017/november/when-are-mice-considered-old). To determine whether N-ABD094-rhArg (SEQ ID NO: 50), which induces systemic upregulation of autophagy, can increase longevity, very old C57BL/6J male mice at 25 months of age (equivalent to seventy in humans) fed an ordinary chow diet were separated into 2 groups. One group was treated once weekly with 600 U N-ABD094-rhArg (SEQ ID NO: 50) [CD Very Old (rhArg) group] for 30 weeks while another group was treated with vehicle [CD Very Old (vehicle) group]. A group of C57BL/6J male mice at 7 months of age (equivalent to early thirties in humans) treated with vehicle [CD Young (vehicle) group] served as the reference of progressive changes from mature adult to late middle age over the 30-week period.

[2] = Hepatic steatosis (oil Red O / H&E staining, liver triglyceride); conditions: DIO C57BL/6J male mice on HFD; for Lipid in liver (H&E staining): 11 weeks after treatment
[3] = Barnes maze test for spatial learning and memory; conditions: DIO C57BL/6J male mice on HFD; weekly, at 43-44 weeks of treatment
Procedure: To determine whether N-ABD094-rhArg [SEQ ID NO: 50], which can induce repetitive intermittent fasting cycles, has beneficial effects on cognitive performance, the Barnes maze test was conducted over ten days to evaluate spatial learning and memory function. The test was performed on a flat circular platform (100 cm in diameter, 1.5 cm thick, elevated 40 cm above the floor) with twenty evenly-spaced holes (7 cm in diameter) distributed around the circumference, and an escape box was placed under one of the holes. Prior to experimentation, each mouse was guided to the specific hole that was positioned over the escape box and left for 180 seconds. Subsequently, each mouse was trained to find the escape hole by placing the mouse in the center of the platform under a small black chamber for three seconds, the chamber was then lifted, and mouse was allowed to find the escape hole within 180 seconds. The platform was brightly illuminated and cooled using a desk fan as adverse stimuli. If the mouse was unable to find the target hole in the allowed time, it was guided to the escape box. Two trials were performed each day for four consecutive days as training period, after which the short- and long-term spatial memory of the mouse was probed on Day 5 and Day 10 respectively, by removing the escape box and allowing them to explore the platform for a full 180 seconds. Each trial was recorded directly over the platform. For each trial on Day 1 to 4, the time required to find the escape hole and exit the platform, and the type of exploratory pattern (random, serial, or direct) in exploring were recorded. For each probe trial on Day 5 and 10, the number of times the mice investigated each of the twenty holes was recorded over 180 seconds, with an instance of investigation defined as the localization of the snout inside a given hole.
Spatial memory loss is a prominent feature in rodent models of type 2 diabetes and obesity [Boitard et al., 2014; Underwood and Thompson, 2016]. To investigate whether arginase treatment could prevent spatial memory loss in mice fed a HFD, DIO C57BL/6J male mice were subjected to assessment of spatial memory by Barnes maze test at 43 weeks after receiving weekly administration of N-ABD094-rhArg (SEQ ID NO: 50) starting from 17-week old.

[4] = Bodyweight of treated mice
[5] = Liver and kidney damage biomarkers (serum ALT/AST, urine albumin-to-creatinine); conditions: DIO C57BL/6J male mice on HFD; about 600 U once a week, 34 weeks
Description: Other than WAT and BAT, obesity is associated with excessive accumulation of lipids in the liver (hepatic steatosis). Indeed, the liver of vehicle-treated DIO mice was markedly enlarged (FIG. 7A), with a mass about 3 times (4.68 g) that of the lean control (1.73 g) (FIG. 7B).
Other than liver, obesity is also commonly associated with lipid accumulation in the kidney (renal steatosis) and heart (cardiac steatosis), causing lipotoxicity and dysfunction of these organs. Indeed, there was an increase in kidney and heart mass in DIO mice treated with vehicle (FIG. 8A and FIG. 9A).

hepatocellular carcinoma = assay: Frequency of hepatocellular carcinoma at autopsy
Description: Development of neoplasm in the liver is one of the major characteristics of aging in C57BL/6J male mice with long-term feeding on a HFD, which may be related to the development of severe non-alcoholic fatty liver disease. Treatment with N-ABD094-rhArg [SEQ ID NO: 50] can effectively reverts hepatic steatosis and lower serum concentrations of liver damage biomakers ALT and AST (FIG. 7). Autopsy performed at the end of experiment confirmed the presence of hepatocellular carcinoma (FIG. 28A) in around 40% of C57BL/6J male mice that had been fed on a HFD for 46 weeks (12+34 weeks) starting from 5-week old [HFD (vehicle) group in FIG. 1] (FIG. 28B). The incidence rate even increased to 100% in mice fed on the HFD for 61 weeks (12+49 weeks) [HFD (vehicle) group in FIG. 3] (FIG. 28C). […] These findings support that rhArg has potent effects on prevention of liver cancer.

B1: N-ABD094-rhArg: recombinant human arginase fused to albumin binding domain ABD094 (SEQ ID NO: 50); engineered long-acting arginine-depleting enzyme (protein)
chain: MHHHHHHDEAVDANSLAEAKEAANAELDSYGVSDFYKRLIDKAKTVEGVEALKDAILAALPSGSNNNNNNGSGGMSAKSRTIGIIGAPFSKGQPRGGVEEGPTVLRKAGLLEKLKEQECDVKDYGDLPFADIPNDSPFQIVKNPRSVGKASEQLAGKVAEVKKNGRISLVLGGDHSLAIGSISGHARVHPDLGVIWVDAHTDINTPLTTTSGNLHGQPVSFLLKELKGKIPDVPGFSWVTPCISAKDIVYIGLRDVDPGEHYILKTLGIKYFSMTEVDRLGIGKVMEETLSYLLGRKKRPIHLSFDVDGLDPSFTPATGTPVVGGLTYREGLYITEEIYKTGLLSGLDIMEVNPSLGKTPEEVTRTVNTAVAITLACFGLAREGNHKPIDYLNPPK
modifications: N-ABD094-rhArg, Synthesized in the Lab
notes: engineered long-acting arginine-depleting enzyme
With B1 as the molecule, how does the Survival rate [1] read?
The Survival rate was 80%.

And the “Lipid droplets in liver (oil Red O)” value ([2]; 600 U once a week, 12 weeks)?
The value was “dramatic clearance of lipid droplets”.

And the Liver triglyceride concentrations ([2]; 600 U once a week, 12 weeks)?
Its Liver triglyceride concentrations is “reduced to a level similar to the lean control”.

And the “Lipid in liver (H&E staining)” value ([2]; rhArg and/or RA)?
The value was “significant effect on diminishing lipid in liver”.

And the “Lipid in liver (H&E staining)” value ([2]; rhArg and/or metformin)?
The value was “slight effect of diminishing lipid in liver”.

And the “Barnes maze: exploratory pattern (search mode) on Day 1” value [3]?
The value was “predominately used a serial-type exploratory pattern; also recorded: significantly improve their search mode”.

And the “Barnes maze: latency to exit the platform in training period” value [3]?
Its value is “could exit the platform significantly earlier than HFD-fed mice treated with vehicle; also recorded: significantly reduce the total latency”.

And the “Barnes maze: probe trial Day 5 (short-term memory)” value [3]?
Its value is “explored the holes nearest to the target in increasing frequency with the target hole being the most-explored hole”.

What about the “Barnes maze: probe trial Day 10 (long-term memory)” value [3] of the same molecule?
The value was “Such trends were maintained on Day 10”.

What about the Drop of bodyweight ([4]; 16-month old DIO C57BL/6J male mice on HFD, about 68 g prior to treatment, once a week, 25 weeks) of the same molecule?
The Drop of bodyweight was 50%.

What about the “Bodyweight maintained for the rest of the treatment period” value ([4]; 16-month old DIO C57BL/6J male mice on HFD, about 600 U once a week, 25 weeks) of the same molecule?
Its value is “around 30 g”.

What about the “Bodyweight reached and maintained under treatment” value (from here on “Bodyweight reached and maintained”) ([4]; 17-month old C57BL/6J male mice on chow diet, about 600 U once a week, 21 weeks, from 40 g) of the same molecule?
The value was 30 g.

What about the “Bodyweight reached and maintained” value ([4]; 25-month old C57BL/6J male mice on chow diet, about 600 U once a week, from 45 g within 3 weeks) of the same molecule?
The value was 30 g.

And the “Change in bodyweight under single treatment” value ([4]; DIO C57BL/6J male mice on HFD, 300 U rhArg once a week alone or 300 mg/kg metformin daily alone)?
The value was “stable body weight without further increase in body mass”.

And the “Change in bodyweight under single treatment” value ([4]; DIO C57BL/6J male mice on HFD, 300 U rhArg once a week alone or 300 mg/kg metformin daily alone, listed as rhArg)?
The value was “could only prevent further gain in bodyweight, but did not result in weight loss”.

What about the Change in bodyweight ([4]; DIO C57BL/6J male mice on HFD, 600 U i.p. once a week, 5 weeks (artificial IF experiment)) of the same molecule?
Its Change in bodyweight is “substantial weight loss”.

And the “Decrease of bodyweight by the end of treatment” value ([4]; DIO C57BL/6J male mice on HFD, 600 U i.p. once a week, 5 weeks (reduced daily food intake experiment))?
Its value is 44%.

And the Reduction of bodyweight ([4]; DIO C57BL/6J male mice on HFD, about 600 U i.p. once a week, within 6-7 weeks)?
The Reduction of bodyweight was 40%.

What about the “Bodyweight reached and maintained” value ([4]; DIO C57BL/6J male mice on HFD, about 600 U once a week, 49 weeks, from 50 g within 6-7 weeks) of the same molecule?
The value was “around 30 g”.

What about the “Bodyweight reached and maintained” value ([4]; DIO C57BL/6J male mice on HFD, about 600 U once a week, 49 weeks, from 50 g within 6-7 weeks, listed as rhArg) of the same molecule?
Its value is 30 g.

What about the “Change in bodyweight under single treatment” value ([4]; DIO C57BL/6J male mice on HFD, rhArg once a week alone or 0.33 mg RA daily alone) of the same molecule?
The value was “stable body weight without further increase”.

And the “Change in bodyweight under single treatment” value ([4]; DIO C57BL/6J male mice on HFD, rhArg once a week alone or 0.33 mg RA daily alone, listed as rhArg)?
The value was “could only prevent further gain in bodyweight, but did not result in weight loss”.

What about the Decrease of bodyweight ([4]; DIO ICR female mice on HFD, 1200 U i.p. once a week, within 9-10 weeks) of the same molecule?
Its Decrease of bodyweight is 30%.

And the “Bodyweight maintained for the rest of the treatment period” value ([4]; DIO ICR female mice on HFD, about 1200 U once a week, 56 weeks)?
The value was “around 35 g”.

What about the “Ratio of albumin-to-creatinine in urine” value [5] of the same molecule?
Its value is “levels similar to the age-matched lean control mice”.

And the “Serum concentrations of ALT and AST” value [5]?
Its value is “restored to levels comparable to the lean control mice”.

And the “Development of hepatocellular carcinoma” value (hepatocellular carcinoma; DIO C57BL/6J male mice on HFD, weekly for 34 weeks, vehicle around 40%)?
The value was “none of the mice developed hepatocellular carcinoma”.

What about the “Development of hepatocellular carcinoma” value (hepatocellular carcinoma; DIO C57BL/6J male mice on HFD, weekly for 49 weeks, vehicle 100%) of the same molecule?
Its value is “none of the mice developed hepatocellular carcinoma”.

And the “Development of hepatocellular carcinoma” value (hepatocellular carcinoma; DIO ICR female mice on HFD, weekly for 56 weeks, vehicle over 30%)?
Its value is “none of the mice in HFD (rhArg) group developed hepatocellular carcinoma; also recorded: effectively prevent the development of hepatocellular carcinoma”.
